From article PMC5975642 (2018) come the findings set out here.

For assay [1], the target named is T1, MC4R (Homo sapiens, UniProt P32245). Put plainly: cell competition binding against biotinylated alpha-MSH.
The target in assay [2] is T1, MC4R. Put plainly: cell saturation binding.

T1 sequence (P32245 whole entry): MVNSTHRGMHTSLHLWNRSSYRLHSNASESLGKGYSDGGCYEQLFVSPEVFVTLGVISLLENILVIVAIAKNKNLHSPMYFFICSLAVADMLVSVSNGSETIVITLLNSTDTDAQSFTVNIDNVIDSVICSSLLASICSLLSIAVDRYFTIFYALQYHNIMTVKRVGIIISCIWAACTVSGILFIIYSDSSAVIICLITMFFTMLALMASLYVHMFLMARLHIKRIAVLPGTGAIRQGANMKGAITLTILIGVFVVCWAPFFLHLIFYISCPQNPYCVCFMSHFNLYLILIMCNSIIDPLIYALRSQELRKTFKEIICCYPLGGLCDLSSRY

B1: LCN2 (protein)
chain: QDSTQNLIPAPSLLTVPLQPDFRSDQFRGRWYVVGLAGNAVQKKTEGSFTMYSTIYELQENNSYNVTSILVRDQDQGCRYWIRTFVPSSRAGQFTLGNMHRYPQVQSYNVQVATTDYNQFAMVFFRKTSENKQYFKITLYGRTKELSPELKERFTRFAKSLGLKDDNIIFSVPTDQCIDN
Usually Ki stands for the dissociation constant of the complex between target and ligand, obtained from inhibition or displacement. Low values mean tighter binding, high ones weaker binding. Consider B1, for which, in the assay with MC4R [1], the Ki turned out to be 46.3 nM.

B2: LCN2 (protein)
chain: B1 chain
modifications: biotinylated LCN2
As usually defined, the Kd is the constant that tells how readily two partners part at equilibrium. On to B2, for which, in the assay with MC4R [2], binding was put at a Kd of 51.4 nM.
